From publication PMC6487875

Substrate: N[C@@H](CC(=O)O)C(=O)O
Test: GLOX/HRP-coupled enzyme kinetics
Assay type: biochemical, Homo sapiens
Conditions: PLP

B1: GOT1 (glutamate oxaloacetate transaminase 1, aspartate aminotransferase 1) (Homo sapiens) (protein)
chain: APPSVFAEVPQAQPVLVFKLTADFREDPDPRKVNLGVGAYRTDDCHPWVLPVVKKVEQKIANDNSLNHEYLPILGLAEFRSCASRLALGDDSPALKEKRVGGVQSLGGTGALRIGADFLARWYNGTNNKNTPVYVSSPTWENHNAVFSAAGFKDIRSYRYWDAEKRGLDLQGFLNDLENAPEFSIVVLHACAHNPTGIDPTPEQWKQIASVMKHRFLFPFFDSAYQGFASGNLERDAWAIRYFVSEGFEFFCAQSFSKNFGLYNERVGNLTVVGKEPESILQVLSQMEKIVRITWSNPPAQGARIVASTLSNPELFEEWTGNVKTMADRILTMRSELRARLEALKTPGTWNHITDQIGMFSFTGLNPKQVEYLVNEKHIYLLPSGRINVSGLTTKNLDYVATSIHEAVTKIQ
Km: 4 mM
